From US20130252884A1 (Novo Nordisk, published 2013) come the findings set out here.

In this experiment the target is human beta-Klotho (human, UniProt Q86Z14 1-1044). Briefly: cell-based or functional assay.

B1: [-1A, 71C, 121Q, 166F, 167G, 168L, 171L, 172E, 173A, 174V, des179-181] FGF-21 (ligand)
chain: AHPIPDSSPLLQFGGQVRQRYLYTDDAQQTEAHLEIREDGTVGGAADQSPESLLQLKALKPGVIQILGVKTCRFLCQRPDGALYGSLHFDPEACSFRELLLEDGYNVYQSEAHGLPLHLPGQKSPHRDPAPRGPARFLPLPGLPPALPEPPGILAPQPPDVGSSDPFGLVGLEAVRSPS
B1: the “pERK-HEK293-Beta-klotho without HSA [EC50 (nM)] Median Value” (“pERK-HEK293-Beta-klotho without HSA” for short) amounted to 12.5 nM.

B2: Derivative 101: Analog 10 with modifying moiety III on the sulphur of Cys 71 (ligand)
chain: AHPIPDSSPLLQFGGQVRQRYLYTDDAQQTEAHLEIREDGTVGGAADQSPESLLQLKALKPGVIQILGVKTCRFLCQRPDGALYGSLHFDPEACSFRELLLEDGYNVYQSEAHGLPLHLPGQKSPHRDPAPRGPARFLPLPGLPPALPEPPGILAPQPPDVGSSDPFGLVGLEAVRSPS
modifications: Cys 71: {2-[2-(2-{2-[2-(2-{2-[(S)-4-Carboxy-4-(17-carboxyheptadecanoylamino)butyrylamino]ethoxy}ethoxy)acetylamino]ethoxy}ethoxy)acetylamino]ethylcarbamoyl}methyl (modifying moiety III) on the sulphur atom
B2: the “pERK-HEK293-Beta-klotho without HSA” value was 23.8 nM.

B3: [-1A, S71C, L166F, S167G, M168L, P171L, S172E, Q173A, G174V, Y179F, A180E] FGF-21 (ligand)
chain: AHPIPDSSPLLQFGGQVRQRYLYTDDAQQTEAHLEIREDGTVGGAADQSPESLLQLKALKPGVIQILGVKTCRFLCQRPDGALYGSLHFDPEACSFRELLLEDGYNVYQSEAHGLPLHLPGNKSPHRDPAPRGPARFLPLPGLPPALPEPPGILAPQPPDVGSSDPFGLVGLEAVRSPSFES
For B3, the “pERK-HEK293-Beta-klotho without HSA” value stood at 0.47 nM.

B4: Derivative 24: Analog 8 with modifying moiety III on the sulphur of Cys 71 (ligand)
chain: AHPIPDSSPLLQFGGQVRQRYLYTDDAQQTEAHLEIREDGTVGGAADQSPESLLQLKALKPGVIQILGVKTCRFLCQRPDGALYGSLHFDPEACSFRELLLEDGYNVYQSEAHGLPLHLPGQKSPHRDPAPRGPARFLPLPGLPPALPEPPGILAPQPPDVGSSDPFGLVGLEAVRSPSFES
modifications: Cys 71: {2-[2-(2-{2-[2-(2-{2-[(S)-4-Carboxy-4-(17-carboxyheptadecanoylamino)butyrylamino]ethoxy}ethoxy)acetylamino]ethoxy}ethoxy)acetylamino]ethylcarbamoyl}methyl (modifying moiety III) on the sulphur atom
As for B4, the “pERK-HEK293-Beta-klotho without HSA” value amounted to 1.01 nM.

B5: [-1A, S71C, N121Q, L166F, S167G, M168L, P171L, S172E, Q173A, G174V, Y179F, A180E] FGF-21 (ligand)
chain: AHPIPDSSPLLQFGGQVRQRYLYTDDAQQTEAHLEIREDGTVGGAADQSPESLLQLKALKPGVIQILGVKTCRFLCQRPDGALYGSLHFDPEACSFRELLLEDGYNVYQSEAHGLPLHLPGQKSPHRDPAPRGPARFLPLPGLPPALPEPPGILAPQPPDVGSSDPFGLVGLEAVRSPSFES
On to B5, for which the “pERK-HEK293-Beta-klotho without HSA” value is 0.76 nM.

B6: Met-FGF21 (mature human FGF21 with an added N-terminal methionine) (ligand)
chain: MHPIPDSSPLLQFGGQVRQRYLYTDDAQQTEAHLEIREDGTVGGAADQSPESLLQLKALKPGVIQILGVKTSRFLCQRPDGALYGSLHFDPEACSFRELLLEDGYNVYQSEAHGLPLHLPGNKSPHRDPAPRGPARFLPLPGLPPALPEPPGILAPQPPDVGSSDPLSMVGPSQGRSPSYAS
As to B6, the “pERK-HEK293-Beta-klotho without HSA” value came out at 1.6 nM.

B7: [-1A, S71C, N121Q, L166F, S167G, M168L, G174V, Y179F, A180E] FGF-21 (ligand)
chain: AHPIPDSSPLLQFGGQVRQRYLYTDDAQQTEAHLEIREDGTVGGAADQSPESLLQLKALKPGVIQILGVKTCRFLCQRPDGALYGSLHFDPEACSFRELLLEDGYNVYQSEAHGLPLHLPGQKSPHRDPAPRGPARFLPLPGLPPALPEPPGILAPQPPDVGSSDPFGLVGPSQVRSPSFES
B7: the “pERK-HEK293-Beta-klotho without HSA” value worked out at 0.71 nM.

B8: Derivative 18: Analog 2 with modifying moiety III on the sulphur of Cys 71 (ligand)
chain: AHPIPDSSPLLQFGGQVRQRYLYTDDAQQTEAHLEIREDGTVGGAADQSPESLLQLKALKPGVIQILGVKTCRFLCQRPDGALYGSLHFDPEACSFRELLLEDGYNVYQSEAHGLPLHLPGNKSPHRDPAPRGPARFLPLPGLPPALPEPPGILAPQPPDVGSSDPFGLVGPSQVRSPSFES
modifications: Cys 71: {2-[2-(2-{2-[2-(2-{2-[(S)-4-Carboxy-4-(17-carboxyheptadecanoylamino)butyrylamino]ethoxy}ethoxy)acetylamino]ethoxy}ethoxy)acetylamino]ethylcarbamoyl}methyl (modifying moiety III) on the sulphur atom
On to B8, for which the “pERK-HEK293-Beta-klotho without HSA” value came out at 0.47 nM.

B9: [-1A, S71C, L166F, S167G, M168L, G174V, Y179F, A180E] FGF-21 (ligand)
chain: AHPIPDSSPLLQFGGQVRQRYLYTDDAQQTEAHLEIREDGTVGGAADQSPESLLQLKALKPGVIQILGVKTCRFLCQRPDGALYGSLHFDPEACSFRELLLEDGYNVYQSEAHGLPLHLPGNKSPHRDPAPRGPARFLPLPGLPPALPEPPGILAPQPPDVGSSDPFGLVGPSQVRSPSFES
B9: the “pERK-HEK293-Beta-klotho without HSA” value was determined as 0.64 nM.

B10: [-1A, S71C, N121Q, L166F, M168L, Q173A, G174V, Y179F] FGF21 (ligand)
chain: AHPIPDSSPLLQFGGQVRQRYLYTDDAQQTEAHLEIREDGTVGGAADQSPESLLQLKALKPGVIQILGVKTCRFLCQRPDGALYGSLHFDPEACSFRELLLEDGYNVYQSEAHGLPLHLPGQKSPHRDPAPRGPARFLPLPGLPPALPEPPGILAPQPPDVGSSDPFSLVGPSAVRSPSFAS
In the case of B10, the “pERK-HEK293-Beta-klotho without HSA” value was 0.98 nM.

B11: Derivative 102: Analog 11 with modifying moiety III on the sulphur of Cys 71 (ligand)
chain: AHPIPDSSPLLQFGGQVRQRYLYTDDAQQTEAHLEIREDGTVGGAADQSPESLLQLKALKPGVIQILGVKTCRFLCQRPDGALYGSLHFDPEACSFRELLLEDGYNVYQSEAHGLPLHLPGQKSPHRDPAPRGPARFLPLPGLPPALPEPPGILAPQPPDVGSSDPFSLVGPSAVRSPSFAS
modifications: Cys 71: {2-[2-(2-{2-[2-(2-{2-[(S)-4-Carboxy-4-(17-carboxyheptadecanoylamino)butyrylamino]ethoxy}ethoxy)acetylamino]ethoxy}ethoxy)acetylamino]ethylcarbamoyl}methyl (modifying moiety III) on the sulphur atom
For the molecule B11, the “pERK-HEK293-Beta-klotho without HSA” value turned out to be 1.4 nM.

B12: [-1A, S71C, N121Q, L166F, S167G, M168L, G174V, Y179F, A180E, des181] FGF-21 (ligand)
chain: AHPIPDSSPLLQFGGQVRQRYLYTDDAQQTEAHLEIREDGTVGGAADQSPESLLQLKALKPGVIQILGVKTCRFLCQRPDGALYGSLHFDPEACSFRELLLEDGYNVYQSEAHGLPLHLPGQKSPHRDPAPRGPARFLPLPGLPPALPEPPGILAPQPPDVGSSDPFGLVGPSQVRSPSFE
On to B12, for which the “pERK-HEK293-Beta-klotho without HSA” value came out at 0.78 nM.

B13: Derivative 19: Analog 3 with modifying moiety III on the sulphur of Cys 71 (ligand)
chain: AHPIPDSSPLLQFGGQVRQRYLYTDDAQQTEAHLEIREDGTVGGAADQSPESLLQLKALKPGVIQILGVKTCRFLCQRPDGALYGSLHFDPEACSFRELLLEDGYNVYQSEAHGLPLHLPGNKSPHRDPAPRGPARFLPLPGLPPALPEPPGILAPQPPDVGSSDPFGLVGLEAVRSPSFE
modifications: Cys 71: {2-[2-(2-{2-[2-(2-{2-[(S)-4-Carboxy-4-(17-carboxyheptadecanoylamino)butyrylamino]ethoxy}ethoxy)acetylamino]ethoxy}ethoxy)acetylamino]ethylcarbamoyl}methyl (modifying moiety III) on the sulphur atom
As for B13, the “pERK-HEK293-Beta-klotho without HSA” value came to 0.48 nM.

B14: Derivative 21: Analog 5 with modifying moiety III on the sulphur of Cys 71 (ligand)
chain: AHPIPDSSPLLQFGGQVRQRYLYTDDAQQTEAHLEIREDGTVGGAADQSPESLLQLKALKPGVIQILGVKTCRFLCQRPDGALYGSLHFDPEACSFRELLLEDGYNVYQSEAHGLPLHLPGQKSPHRDPAPRGPARFLPLPGLPPALPEPPGILAPQPPDVGSSDPFGLVGPSQVRSPSFE
modifications: Cys 71: {2-[2-(2-{2-[2-(2-{2-[(S)-4-Carboxy-4-(17-carboxyheptadecanoylamino)butyrylamino]ethoxy}ethoxy)acetylamino]ethoxy}ethoxy)acetylamino]ethylcarbamoyl}methyl (modifying moiety III) on the sulphur atom
In the case of B14, the “pERK-HEK293-Beta-klotho without HSA” value was found to be 1.07 nM.

B15: [-1A, S71C, L166F, S167G, M168L, G174V, Y179F, A180E, des181] FGF-21 (ligand)
chain: AHPIPDSSPLLQFGGQVRQRYLYTDDAQQTEAHLEIREDGTVGGAADQSPESLLQLKALKPGVIQILGVKTCRFLCQRPDGALYGSLHFDPEACSFRELLLEDGYNVYQSEAHGLPLHLPGNKSPHRDPAPRGPARFLPLPGLPPALPEPPGILAPQPPDVGSSDPFGLVGPSQVRSPSFE
Take B15: the “pERK-HEK293-Beta-klotho without HSA” value was found to be 0.71 nM.

B16: [-1A, S71C, N121Q, L166F, S167G, M168L, P171L, S172E, Q173A, G174V, Y179F, A180E, des181] FGF-21 (ligand)
chain: AHPIPDSSPLLQFGGQVRQRYLYTDDAQQTEAHLEIREDGTVGGAADQSPESLLQLKALKPGVIQILGVKTCRFLCQRPDGALYGSLHFDPEACSFRELLLEDGYNVYQSEAHGLPLHLPGQKSPHRDPAPRGPARFLPLPGLPPALPEPPGILAPQPPDVGSSDPFGLVGLEAVRSPSFE
Take B16: the “pERK-HEK293-Beta-klotho without HSA” value stood at 0.63 nM.

B17: [-1A, S71C, L166F, S167G, M168L, P171L, S172E, Q173A, G174V, Y179F, A180E, des181] FGF-21 (ligand)
chain: AHPIPDSSPLLQFGGQVRQRYLYTDDAQQTEAHLEIREDGTVGGAADQSPESLLQLKALKPGVIQILGVKTCRFLCQRPDGALYGSLHFDPEACSFRELLLEDGYNVYQSEAHGLPLHLPGNKSPHRDPAPRGPARFLPLPGLPPALPEPPGILAPQPPDVGSSDPFGLVGLEAVRSPSFE
With B17, the “pERK-HEK293-Beta-klotho without HSA” value was determined as 0.77 nM.

B18: [-1A, 121Q, 166F, 167G, 168L, 171L, 172E, 173A, 174V, 179F, 180E, des181] FGF-21 (ligand)
chain: AHPIPDSSPLLQFGGQVRQRYLYTDDAQQTEAHLEIREDGTVGGAADQSPESLLQLKALKPGVIQILGVKTSRFLCQRPDGALYGSLHFDPEACSFRELLLEDGYNVYQSEAHGLPLHLPGQKSPHRDPAPRGPARFLPLPGLPPALPEPPGILAPQPPDVGSSDPFGLVGLEAVRSPSFE
In the case of B18, the “pERK-HEK293-Beta-klotho without HSA” value was determined as 0.7 nM.

B19: Derivative 31: Analog 7 with modifying moiety IV on the sulphur of Cys 71 (ligand)
chain: AHPIPDSSPLLQFGGQVRQRYLYTDDAQQTEAHLEIREDGTVGGAADQSPESLLQLKALKPGVIQILGVKTCRFLCQRPDGALYGSLHFDPEACSFRELLLEDGYNVYQSEAHGLPLHLPGQKSPHRDPAPRGPARFLPLPGLPPALPEPPGILAPQPPDVGSSDPFGLVGLEAVRSPSFE
modifications: Cys 71: {2-[2-(2-{2-[2-(2-{2-[(S)-4-Carboxy-4-(19-carboxynonadecanoylamino)butyrylamino]ethoxy}ethoxy)acetylamino]ethoxy}ethoxy)acetylamino]ethylcarbamoyl}methyl (modifying moiety IV) on the sulphur atom
As for B19, the “pERK-HEK293-Beta-klotho without HSA” value turned out to be 1.46 nM.

B20: Derivative 23: Analog 7 with modifying moiety III on the sulphur of Cys 71 (ligand)
chain: AHPIPDSSPLLQFGGQVRQRYLYTDDAQQTEAHLEIREDGTVGGAADQSPESLLQLKALKPGVIQILGVKTCRFLCQRPDGALYGSLHFDPEACSFRELLLEDGYNVYQSEAHGLPLHLPGQKSPHRDPAPRGPARFLPLPGLPPALPEPPGILAPQPPDVGSSDPFGLVGLEAVRSPSFE
modifications: Cys 71: {2-[2-(2-{2-[2-(2-{2-[(S)-4-Carboxy-4-(17-carboxyheptadecanoylamino)butyrylamino]ethoxy}ethoxy)acetylamino]ethoxy}ethoxy)acetylamino]ethylcarbamoyl}methyl (modifying moiety III) on the sulphur atom
As for B20, the “pERK-HEK293-Beta-klotho without HSA” value worked out at 0.64 nM.

B21: Derivative 17: Analog 1 with modifying moiety III on the sulphur of Cys 71 (ligand)
chain: AHPIPDSSPLLQFGGQVRQRYLYTDDAQQTEAHLEIREDGTVGGAADQSPESLLQLKALKPGVIQILGVKTCRFLCQRPDGALYGSLHFDPEACSFRELLLEDGYNVYQSEAHGLPLHLPGNKSPHRDPAPRGPARFLPLPGLPPALPEPPGILAPQPPDVGSSDPFGLVGPSQVRSPSFE
modifications: Cys 71: {2-[2-(2-{2-[2-(2-{2-[(S)-4-Carboxy-4-(17-carboxyheptadecanoylamino)butyrylamino]ethoxy}ethoxy)acetylamino]ethoxy}ethoxy)acetylamino]ethylcarbamoyl}methyl (modifying moiety III) on the sulphur atom
For the molecule B21, the “pERK-HEK293-Beta-klotho without HSA” value came to 0.98 nM.
